The target in the experiment is CCR5 (UniProt P51681). As to the kind of experiment: cell-based or functional assay.

Numbering of substitutions follows the chain as printed.

B1: RANTES derivative: signature sequence SEQ ID NO: 60 fused to positions 10-68 of native RANTES (SEQ ID NO: 1) (ligand)
chain: QGPPLQWMQACCFAYIARPLPRAHIKEYFYTSGKCSNPAVVFVTRKNRQVCANPEKKWVREYINSLEMS
Molecule B1 displayed a CCR5 sequestration (%) (% of control surface CCR5) of 8; a CCR5 signalling (%) (% of Emax of PSC-RANTES) of 11.8; an anti-HIV potency (IC50, nM) by cell fusion assay of 0.02 nM.

B2: RANTES derivative: signature sequence SEQ ID NO: 7 fused to positions 10-68 of native RANTES (SEQ ID NO: 1) (ligand)
chain: B1 chain with Q6M, M8T, A10V
Molecule B2 gave a CCR5 sequestration (%) (% of control surface CCR5) of 10; a CCR5 signalling (%) (% of Emax of PSC-RANTES) of 0.7; an anti-HIV potency (IC50, nM) by cell fusion assay of 0.02 nM; an anti-HIV potency (IC50, nM) by viral replication assay of 0.179 nM.

B3: RANTES derivative: signature sequence SEQ ID NO: 64 fused to positions 10-68 of native RANTES (SEQ ID NO: 1) (ligand)
chain: B1 chain with Q6M, W7S, M8L, A10S
In turn, B3 came in with a CCR5 sequestration (%) (% of control surface CCR5) of 28; a CCR5 signalling (%) (% of Emax of PSC-RANTES) of 17.2; an anti-HIV potency (IC50, nM) by cell fusion assay of 0.04 nM.

B4: RANTES derivative: signature sequence SEQ ID NO: 61 fused to positions 10-68 of native RANTES (SEQ ID NO: 1) (ligand)
chain: B1 chain with A10V
Molecule B4 yielded a CCR5 sequestration (%) (% of control surface CCR5) of 7; a CCR5 signalling (%) (% of Emax of PSC-RANTES) of 12.7; an anti-HIV potency (IC50, nM) by cell fusion assay of 0.02 nM.

B5: RANTES derivative: signature sequence SEQ ID NO: 67 fused to positions 10-68 of native RANTES (SEQ ID NO: 1) (ligand)
chain: B1 chain with Q6M, W7S, M8A, A10S
With B5, the CCR5 sequestration (%) (% of control surface CCR5) turned out to be 15; the CCR5 signalling (%) (% of Emax of PSC-RANTES) stood at 10.3; the anti-HIV potency (IC50, nM) by cell fusion assay turned out to be 0.12 nM.

B6: RANTES derivative: signature sequence SEQ ID NO: 68 fused to positions 10-68 of native RANTES (SEQ ID NO: 1) (ligand)
chain: B1 chain with Q6M, W7S, M8G, A10S
The molecule B6 registered a CCR5 sequestration (%) (% of control surface CCR5) of 24; a CCR5 signalling (%) (% of Emax of PSC-RANTES) of 10.6; an anti-HIV potency (IC50, nM) by cell fusion assay of 0.17 nM.

B7: RANTES derivative: signature sequence SEQ ID NO: 66 fused to positions 10-68 of native RANTES (SEQ ID NO: 1) (ligand)
chain: B1 chain with Q6M, W7S, M8V, A10S
Molecule B7 displayed a CCR5 sequestration (%) (% of control surface CCR5) of 42; a CCR5 signalling (%) (% of Emax of PSC-RANTES) of 33.4; an anti-HIV potency (IC50, nM) by cell fusion assay of 0.07 nM.

B8: RANTES derivative: signature sequence SEQ ID NO: 62 fused to positions 10-68 of native RANTES (SEQ ID NO: 1) (ligand)
chain: B1 chain with Q6M, W7S, M8T, A10V
B8 gave a CCR5 sequestration (%) (% of control surface CCR5) of 45; a CCR5 signalling (%) (% of Emax of PSC-RANTES) of 29.6; an anti-HIV potency (IC50, nM) by cell fusion assay of 0.03 nM.

B9: RANTES derivative: signature sequence SEQ ID NO: 63 fused to positions 10-68 of native RANTES (SEQ ID NO: 1) (ligand)
chain: B1 chain with Q6M, W7S, M8L, Q9S, A10V
On to B9, for which the CCR5 sequestration (%) (% of control surface CCR5) was determined as 50; the CCR5 signalling (%) (% of Emax of PSC-RANTES) turned out to be 42.7; the anti-HIV potency (IC50, nM) by cell fusion assay came to 0.03 nM.

B10: RANTES derivative: signature sequence SEQ ID NO: 8 fused to positions 10-68 of native RANTES (SEQ ID NO: 1) (ligand)
chain: B1 chain with Q6M, A10S
B10 came in with a CCR5 sequestration (%) (% of control surface CCR5) of 0; a CCR5 signalling (%) (% of Emax of PSC-RANTES) of 2.5; an anti-HIV potency (IC50, nM) by cell fusion assay of 0.03 nM; an anti-HIV potency (IC50, nM) by viral replication assay of 0.278 nM.

B11: RANTES derivative: signature sequence SEQ ID NO: 65 fused to positions 10-68 of native RANTES (SEQ ID NO: 1) (ligand)
chain: B1 chain with Q6M, W7S, M8L
The molecule B11 gave a CCR5 sequestration (%) (% of control surface CCR5) of 30; a CCR5 signalling (%) (% of Emax of PSC-RANTES) of 11.5; an anti-HIV potency (IC50, nM) by cell fusion assay of 0.04 nM.

B12: RANTES derivative: signature sequence SEQ ID NO: 69 fused to positions 10-68 of native RANTES (SEQ ID NO: 1) (ligand)
chain: B1 chain with Q6M, W7S, M8G, A10V
Molecule B12 showed a CCR5 sequestration (%) (% of control surface CCR5) of 38; a CCR5 signalling (%) (% of Emax of PSC-RANTES) of 20.1; an anti-HIV potency (IC50, nM) by cell fusion assay of 0.22 nM.

The record behind these values is US20090317363A1.
